± gives the standard deviation of the averaged measurements.
B1: library; a variant is named by its letters at N, in order (parent)
chain: GCUGUCACCGGUGUAUUACCCUAGUGGUCGACCGGUCUGAUGAGUCUNNNNNNAGACGAAACAGC

Legend:
hypoxanthine [1] = variants of: B1; assay: FACS-Seq fitted mean relative fluorescence mCherry/BFP without ligand (log10 relative fluorescence); ligand: hypoxanthine (xanthine aptamer); higher = higher reporter protein expression; settings: HEK293T, ligand present: no
In short: (§1)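 HEK293T libraries were lentivirally transduced with an mCherry reporter carrying the ribozyme switch and an EF1α-BFP marker, enriched, and incubated for 48 h with or without ligand before sorting into 6 bins by mCherry/BFP. Genomic DNA from each bin was PCR-amplified, barcoded and sequenced on MiSeq. Fluorescence is the fitted normal mean of the bin counts. The fit used log10(mCherry/BFP), and means were scaled to five spiked-in control ribozymes.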

hypoxanthine [2] = variants of: B1; assay: normalized RNA/DNA level with ligand (relative to sTRSVctl = 100) (log10 (% of sTRSVctl)); ligand: hypoxanthine (xanthine aptamer); higher = less ribozyme self-cleavage, higher mRNA level; settings: ligand concentration (+) RNA-Seq: 5 mM, HEK293T, reporter: mCherry (pCS4076), ligand present: yes
In short: (§2)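 RNA level was computed as RNA reads over DNA reads divided by a spiked-in non-cleaving sequence or by the top sequences, then scaled and log-transformed. Scaling was ×100 with log10, the top group was 25 sequences, and the threshold was ≥100 DNA reads. The reads came from HEK293T cells transfected at 4 µg per 6-well well with ribozyme switch library plasmids (mCherry, or eGFP in some ligand experiments). Total RNA was extracted with EDTA 72 h after transfection, with any ligand added 1 h before it.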

hypoxanthine [3] = variants of: B1; assay: normalized RNA/DNA level without ligand (relative to sTRSVctl = 100) (log10 (% of sTRSVctl)); ligand: hypoxanthine (xanthine aptamer); higher = less ribozyme self-cleavage, higher mRNA level; settings: HEK293T, reporter: mCherry (pCS4076), ligand present: no
In short: as §2

hypoxanthine [4] = variants of: B1; assay: FACS-Seq fitted mean relative fluorescence mCherry/BFP with ligand (log10 relative fluorescence); ligand: hypoxanthine (xanthine aptamer); ligand concentration (+) FACS-Seq: 5 mM; higher = higher reporter protein expression; settings: HEK293T, ligand present: yes
In short: as §1

Variant | FACS-Seq fitted mean (log10) (hypoxanthine [1]) | normalized RNA/DNA level with ligand (log10) (hypoxanthine [2]) | normalized RNA/DNA level without ligand (log10) (hypoxanthine [3]) | FACS-Seq fitted mean (log10) (hypoxanthine [4])
GACACC | 0.458 ± 0.072 | 1.92 ± 0.022 | 1.8641 ± 0.00014 | 0.365 ± 0.049
CUUCGA | -0.0248 ± 0.11 | 2.01 ± 0.04 | 1.876 ± 0.012 | 0.346 ± 0.059
GGUGGC | 0.217 ± 0.017 | 1.89 ± 0.039 | 1.57 ± 0.025 | 0.392 ± 0.007
AAUUAC | 0.511 ± 0.13 | 1.96 ± 0.04 | 1.823 ± 0.016 | 0.516 ± 0.022
AACUCG | 0.382 ± 0.056 | 1.92 ± 0.033 | 1.582 ± 0.0054 | 0.644 ± 0.022
CGGAAA | 0.32 ± 0.016 | 1.87 ± 0.025 | 1.43 ± 0.051 | 0.587 ± 0.016
UAACGC | 0.329 ± 0.043 | 1.92 ± 0.058 | 1.74 ± 0.031 | 0.365 ± 0.011
CCACUG | 0.339 ± 0.054 | 1.917 ± 0.012 | 1.8 ± 0.1 | 0.526 ± 0.076
AAAUAU | -0.168 ± 0.02 | 1.924 ± 0.012 | 1.763 ± 0.0044 | -0.451 ± 0.1
GAUUUA | 0.541 ± 0.043 | 1.89 ± 0.036 | 1.87 ± 0.051 | 0.437 ± 0.1
ACAUUC | 0.36 ± 0.034 | 1.979 ± 0.0095 | 1.92 ± 0.062 | 0.421 ± 0.02
UCAAAA | 0.491 ± 0.022 | 1.934 ± 0.013 | 1.717 ± 0.0054 | 0.446 ± 0.019
ACUAAA | 0.324 ± 0.083 | 1.897 ± 0.0002 | 1.76 ± 0.018 | 0.54 ± 0.027
UCGAAG | 0.5 ± 0.074 | 1.87 ± 0.039 | 1.417 ± 0.0057 | 0.746 ± 0.025
AGCCGG | -0.0509 ± 0.035 | 1.91 ± 0.012 | 1.67 ± 0.02 | 0.305 ± 0.055
GUCGAA | 0.322 ± 0.039 | 1.92 ± 0.034 | 1.69 ± 0.021 | 0.22 ± 0.072
CGAUUA | 0.312 ± 0.038 | 1.9239 ± 0.001 | 1.64 ± 0.034 | 0.569 ± 0.13
AGCGUG | 0.152 ± 0.014 | 1.798 ± 0.014 | 1.37 ± 0.042 | 0.398 ± 0.032
UGAGUC | 0.177 ± 0.08 | 1.99 ± 0.004 | 1.97 ± 0.025 | -0.0516 ± 0.012
GCUGAU | 0.294 ± 0.021 | 1.97 ± 0.029 | 1.776 ± 0.014 | 0.376 ± 0.054
AUGCGG | -0.0506 ± 0.036 | 1.752 ± 0.0084 | 1.31 ± 0.12 | 0.504 ± 0.014
CCCGGG | 0.92 ± 0.051 | 1.94 ± 0.12 | 1.6826 ± 0.0015 | 0.833 ± 0.061
AGUCAU | 0.385 ± 0.052 | 1.92 ± 0.0085 | 1.79 ± 0.023 | 0.509 ± 0.025
ACGUGG | 0.0467 ± 0.0087 | 1.54 ± 0.018 | 1.13 ± 0.016 | 0.697 ± 0.018

Variant | FACS-Seq fitted mean (log10) (hypoxanthine [1]) | normalized RNA/DNA level with ligand (log10) (hypoxanthine [2]) | normalized RNA/DNA level without ligand (log10) (hypoxanthine [3]) | FACS-Seq fitted mean (log10) (hypoxanthine [4])
CUUUUA | 0.647 ± 0.044 | 1.92 ± 0.051 | 1.77 ± 0.043 | 0.318 ± 0.12
AUUAGA | 0.629 ± 0.042 | 1.895 ± 0.013 | 1.71 ± 0.028 | 0.69 ± 0.04
CCGCAG | 0.345 ± 0.031 | 1.82 ± 0.072 | 1.39 ± 0.032 | 0.638 ± 0.042
ACGAGU | 0.0593 ± 0.021 | 1.76 ± 0.022 | 1.11 ± 0.047 | 0.609 ± 0.0067
GUCAGA | -0.213 ± 0.0037 | 1.897 ± 0.0028 | 1.74 ± 0.042 | -0.0451 ± 0.017
AUGAAU | 0.418 ± 0.023 | 1.907 ± 0.01 | 1.66 ± 0.027 | 0.644 ± 0.066
GGGAGU | 0.36 ± 0.0084 | 1.92 ± 0.047 | 1.63 ± 0.039 | 0.629 ± 0.011
GAUAAA | 0.6 ± 0.041 | 1.919 ± 0.009 | 1.764 ± 0.0024 | 0.621 ± 0.12
GAUAAU | -0.0227 ± 0.0069 | 1.909 ± 0.0021 | 1.78 ± 0.026 | 0.133 ± 0.006
CCUGCG | -0.205 ± 0.019 | 1.98 ± 0.015 | 1.86 ± 0.0037 | -0.2206 ± 0.00099
AACGGC | 0.644 ± 0.088 | 1.95 ± 0.02 | 1.816 ± 0.012 | 0.696 ± 0.074
UAAAUA | 0.398 ± 0.012 | 1.92 ± 0.026 | 1.836 ± 0.002 | 0.49 ± 0.045
CUGAGA | 0.665 ± 0.033 | 1.93 ± 0.036 | 1.77 ± 0.058 | 0.753 ± 0.0013
UCAAUC | 0.3976 ± 0.0018 | 2.0151 ± 0.001 | 2 ± 0.024 | 0.543 ± 0.12
GAACUU | 0.731 ± 0.013 | 1.91 ± 0.11 | 1.8654 ± 0.0014 | 0.616 ± 0.025
UUGACG | 0.486 ± 0.025 | 1.93 ± 0.057 | 1.831 ± 0.0085 | 0.5104 ± 0.00062
AAUGGG | 0.049 ± 0.035 | 1.77 ± 0.052 | 1.25 ± 0.063 | 0.547 ± 0.047
AGGGAG | -0.123 ± 0.041 | 1.78 ± 0.086 | 1.4 ± 0.042 | 0.0991 ± 0.022
AGGGAC | 0.0327 ± 0.041 | 1.916 ± 0.017 | 1.7 ± 0.018 | -0.137 ± 0.14
AAACCG | 0.278 ± 0.022 | 1.8 ± 0.029 | 1.37 ± 0.029 | 0.73 ± 0.045
CCAUUC | -0.142 ± 0.078 | 2.022 ± 0.0033 | 1.9 ± 0.07 | 0.309 ± 0.014
ACCGCG | 0.331 ± 0.028 | 1.826 ± 0.015 | 1.5 ± 0.097 | 0.608 ± 0.026
AGUCGG | 0.0517 ± 0.00086 | 1.85 ± 0.049 | 1.48 ± 0.085 | 0.38 ± 0.078
CUAUUG | 0.179 ± 0.031 | 1.95 ± 0.048 | 1.843 ± 0.0087 | 0.763 ± 0.041

Variant | FACS-Seq fitted mean (log10) (hypoxanthine [1]) | normalized RNA/DNA level with ligand (log10) (hypoxanthine [2]) | normalized RNA/DNA level without ligand (log10) (hypoxanthine [3]) | FACS-Seq fitted mean (log10) (hypoxanthine [4])
CUAAAC | 0.4073 ± 0.0033 | 1.89 ± 0.025 | 1.827 ± 0.015 | 0.415 ± 0.1
UGACGA | 0.285 ± 0.037 | 1.94 ± 0.023 | 1.581 ± 0.0051 | 0.593 ± 0.023
AAAAUG | 0.362 ± 0.024 | 1.857 ± 0.017 | 1.51 ± 0.044 | 0.671 ± 0.053
AGUUGC | 0.226 ± 0.043 | 1.91 ± 0.048 | 1.72 ± 0.022 | 0.382 ± 0.02
GAAACA | 0.6 ± 0.025 | 1.91 ± 0.047 | 1.857 ± 0.0049 | 0.389 ± 0.13
GCUUUG | -0.186 ± 0.032 | 1.91 ± 0.048 | 1.56 ± 0.018 | 0.36 ± 0.05
CAUAGA | 1.171 ± 0.0012 | 1.931 ± 0.0061 | 1.767 ± 0.0051 | 0.849 ± 0.08
GCCGAA | 0.359 ± 0.087 | 1.96 ± 0.071 | 1.756 ± 0.0038 | 0.445 ± 0.055
ACAGUC | 0.656 ± 0.012 | 1.924 ± 0.0022 | 1.951 ± 0.0032 | 0.657 ± 0.04
CCGUGA | 0.311 ± 0.044 | 1.973 ± 0.0073 | 1.565 ± 0.012 | 0.64 ± 0.017
CAAGGC | -0.0753 ± 0.017 | 1.936 ± 0.017 | 1.84 ± 0.024 | -0.0781 ± 0.056
AUACGG | -0.0504 ± 0.059 | 1.785 ± 0.012 | 1.27 ± 0.082 | 0.547 ± 0.084
UUAAGA | 0.6835 ± 0.0045 | 1.884 ± 0.0019 | 1.68 ± 0.059 | 0.618 ± 0.02
CAGAGA | 0.37782 ± 0.00012 | 1.892 ± 0.0089 | 1.659 ± 0.0052 | 0.696 ± 0.03
UUAAAG | 0.207 ± 0.12 | 1.886 ± 0.0075 | 1.6908 ± 0.00025 | 0.201 ± 0.0094
GAUGGG | -0.0971 ± 0.21 | 1.81 ± 0.025 | 1.3 ± 0.053 | 0.3779 ± 0.0029
GUUGCA | 0.818 ± 0.056 | 1.918 ± 0.017 | 1.81 ± 0.021 | 0.698 ± 0.011
ACGGCG | -0.0504 ± 0.0018 | 1.91 ± 0.025 | 1.42 ± 0.015 | 0.466 ± 0.082
GCGGUG | 0.212 ± 0.007 | 1.79 ± 0.053 | 1.41 ± 0.097 | 0.623 ± 0.019
GCGGAG | -0.112 ± 0.056 | 1.66 ± 0.054 | 1.24 ± 0.052 | 0.449 ± 0.1
GAAGAC | 0.249 ± 0.014 | 1.921 ± 0.0023 | 1.63 ± 0.026 | 0.505 ± 0.069
GGAUAA | 0.5354 ± 0.0025 | 1.9 ± 0.025 | 1.74 ± 0.024 | 0.552 ± 0.016
GUUGUA | 0.455 ± 0.0078 | 1.9 ± 0.025 | 1.84 ± 0.032 | 0.632 ± 0.012
GGGGCU | -0.598 ± 0.026 | 1.99 ± 0.074 | 2.008 ± 0.015 | -0.677 ± 0.077

— the supplement of paper PMC6757056
